The values that follow come from paper PMC9559407, “Enzyme linked oligonucleotide assay for the sensitive detection of SARS-CoV-2 variants”.

The target in the series is SARS-CoV-2 spike RBD (called RBD S glycoprotein) (SARS-CoV-2 (2019-nCoV), UniProt P0DTC2 319-541). Nature of the series: direct ELONA. The conditions noted are these: protein: commercial; label: 5'-biotin.

B1: CoV2-RBD-1C (ssDNA)
DNA: CAGCACCGACCTTGTGCTTTGGGAGTGCTGGTCCAAGGGCGTTAATGGACA
For B1, the binding result is “binds”.
